Source: patent US20140298544A1, “Engineered PEP carboxylase variants for improved plant productivity” (PIONEER HI BRED INTERNATIONAL INC, priority 2011, published 2014)
Changes are numbered by the printed parent chain.

B1: 3F30-F12: maize C4 PEPC variant, 7 amino acid substitutions, SEQ ID NO: 11 (protein)
chain: MASTKAPGPGEKHHSIDAQLRQLVPGKVSEDDKLIEYDALLVDRFLNILQDLHGPSLREFVQECYEVSADYEGKGDTTKLGELGAKLTGLAPADAILVASSILHMLNLANLAEEAQIAHRRRNSKLKKGGFADEGSATTESDIEETLKRLVSEVGKSPEEVFEALKNQTVDLVFTAHPTQSARRSLLQKNAGIRNCLTQLNAKDITDGDKQELDEALQREIQAAFRTDEIRRAQPTPQDEMRYGMSYIHETVWKGVPKFLRRVDTALKNIGINERLPYNVSLIRFSSWMGGDRDGNPRVTPEVTRDVCLLARMMAANLYIDQIEELMFELSMWRCNDELRVRAEELHSSSGSKVTKYYIEFWKQIPPNEPYRVILGHVRDKLYNTRERARHLLASGVSEISAESSFTSIEEFLEPLELCYKSLCDCGDKAIADGSLLDLLRQVFTFGLSLVKLDIRQESERHTDVIDAITTHLGIGSYREWSEDKRQEWLLSELRGKRPLLPPDLPQTDEIADVIGAFHVLAELPPDSFGPYIISMATAPSDVLAVELLQRECGIKQPLPVVPLFERLADLQSAPASVERLFSVDWYMDRIKGKQQVMVGYSDSGKDAGRLSAAWQLYKAQEEMAQVAKRYGVKLTLFHGRGGTVGRGGGPTHLAILSQPPDTINGSIRVTVQGEVIEFCFGEEHLCFQTLQRFTAATLEHGMHPPVSPKPEWRKLMDEMAVVATEEYRSVVVKEPRFVEYFRSATPETEYGRMNIGSRPAKRRPGGGITTLRAIPWIFSWTQTRFHLPVWLGVGAAFKFAIDKDVRNFQVLKEMYNEWPFFRVTLDLLEMIFAKGDPGIAGLYDELLVAEELKPFGKQLRDKYVETQQLLLQIAGHKDILEGDPFLKQGLVLRNPYITTLNVFQAYTLKRIRDPNFKVTPQPPLSKEFADENKPAGLVKLNPASEYPPGLEDTLILTMKGIAAGMQNTG
modifications: shuffled variant
B2: 3C9-C9: maize C4 PEPC variant, 8 amino acid substitutions, SEQ ID NO: 22 (protein)
chain: B1 chain with A115V, H119R, G208D, D321N, S404A, R495K, I832V
modifications: shuffled variant
B3: 3C2-H4: maize C4 PEPC variant, 6 amino acid substitutions, SEQ ID NO: 12 (protein)
chain: B1 chain with A115V, H119R, G208D, S404A, R495K, I555V, K556R, R807K, I832V
modifications: shuffled variant
B4: 3D5-D12: maize C4 PEPC variant, 7 amino acid substitutions, SEQ ID NO: 24 (protein)
chain: B1 chain with K86R, G208D, S348A, S350A, R495K, I555V, K556R, K619R, R807K, I832V
modifications: shuffled variant

The molecules below were run on maize C4 PEPC (assay: Kinetic and regulatory properties of PEPC variants (expressed in E. coli)). Conditions: PEP substrate, no activators.
Format: biochemical
From the text: Libraries of modified PEPC polynucleotides were generated using recursive sequence recombination methods (Stemmer, Proc. Natl. Acad. Sci USA 91:10747-10751; Ness, et. al., Nature Biotechnology 20:1251-1255), also known as gene shuffling methods. These libraries incorporated diversity from related PEPC enzymes and also incorporated other designed and random changes. The starting polynucleotide sequence in which the diversity was incorporated was the maize C4 PEPC as shown in SEQ ID NO: 25. Each PEPC variant was expressed in E. coli as a thioredoxin fusion using the pET 32 expression vector (Novagen) with the E. coli expression strain Rosetta gami 2 BL21 DE3 pLYS S. Cultures expressing the variants were grown in 96-well culture blocks, lysed, and then PEPC activity and PEPC protein abundance were determined. The variants with high specific activity were subjected to further rounds of shuffling, for a total of 3 rounds. Examples of nucleotide and amino acid sequences of PEPC variants obtained with this method are SEQ ID NO: 4 to 24.
Detailed kinetic studies of PEPC variants were done in accordance with methods known in the art. See, for example, Tovar-Mendez et al. (2000) Plant Physiol. 123: 149-160; Tover-Mendez et al. (1998) Biochem. J. 332: 633-642.
PEPC variants had several improved properties in comparison with wild type PEPC, including greater affinity (lower S0.5 values) with respect to the bicarbonate substrate, greater Kcat/S0.5 values with the bicarbonate or PEP substrates, greater activation (lower A0.5 values) with […] or glycine as activators and greater Ki values with malate as inhibitor.

Row | Molecule | PEP, no activators kcat/S0.5
1 | B1 | 89800 M⁻¹ s⁻¹
2 | B2 | 79600 M⁻¹ s⁻¹
3 | B3 | 64100 M⁻¹ s⁻¹
4 | B4 | 151000 M⁻¹ s⁻¹

Same assay, conditions: PEP substrate, no activators; relative to wild type

Row | Molecule | PEP, no activators kcat/S0.5 % wt
5 | B1 | 263 % wt
6 | B2 | 234 % wt
7 | B3 | 188 % wt
8 | B4 | 442 % wt

Same assay, conditions: PEP substrate, with activators

Row | Molecule | PEP, with activators kcat/S0.5
9 | B1 | 4.496e+06 M⁻¹ s⁻¹
10 | B2 | 3.831e+06 M⁻¹ s⁻¹
11 | B3 | 3.919e+06 M⁻¹ s⁻¹
12 | B4 | 5.551e+06 M⁻¹ s⁻¹

Same assay, conditions: PEP substrate, with activators vs no activators

Row | Molecule | kcat/S0.5 Fold incr.
13 | B1 | 50.1 Fold incr.
14 | B2 | 48.1 Fold incr.
15 | B3 | 61.2 Fold incr.
16 | B4 | 36.9 Fold incr.

Same assay, conditions: PEP substrate, with activators; relative to wild type

Row | Molecule | PEP, with activators kcat/S0.5 % wt
17 | B1 | 184 % wt
18 | B2 | 157 % wt
19 | B3 | 160 % wt
20 | B4 | 227 % wt

Same assay, conditions: activator Glc-6-P

Row | Molecule | Glc-6-P Vmax Fold incr
21 | B1 | 12.6 Fold incr
22 | B2 | 11.4 Fold incr
23 | B3 | 7.6 Fold incr
24 | B4 | 4.3 Fold incr

Same assay, conditions: activator Glc-6-P; read-out: Glc-6-P A0.5

Row | Molecule | EC50
25 | B1 | 5110 µM
26 | B2 | 3850 µM
27 | B3 | 3020 µM
28 | B4 | 1880 µM

Same assay, conditions: activator Glc-6-P; relative to wild type

Row | Molecule | Glc-6-P A0.5 % wt
29 | B1 | 75 % wt
30 | B2 | 57 % wt
31 | B3 | 44 % wt
32 | B4 | 28 % wt

Same assay, conditions: activator glycine

Row | Molecule | Glycine Vmax Fold incr
33 | B1 | 11.3 Fold incr
34 | B2 | 11.5 Fold incr
35 | B3 | 10.3 Fold incr
36 | B4 | 4.1 Fold incr

Same assay, conditions: activator glycine; read-out: Glycine A0.5

Row | Molecule | EC50
37 | B1 | 700 µM
38 | B2 | 760 µM
39 | B3 | 560 µM
40 | B4 | 320 µM

Same assay, conditions: activator glycine; relative to wild type

Row | Molecule | Glycine A0.5 % wt
41 | B1 | 19 % wt
42 | B2 | 21 % wt
43 | B3 | 16 % wt
44 | B4 | 9 % wt

Same assay, conditions: bicarbonate substrate

Row | Molecule | HCO3 S0.5 | HCO3 kcat/S0.5
45 | B1 | 0.0248 mM | 3.481e+06 M⁻¹ s⁻¹
46 | B2 | 0.021 mM | 3.606e+06 M⁻¹ s⁻¹
47 | B3 | 0.026 mM | 3.581e+06 M⁻¹ s⁻¹
48 | B4 | 0.0277 mM | 3.454e+06 M⁻¹ s⁻¹

Same assay, conditions: bicarbonate substrate; relative to wild type

Row | Molecule | HCO3 kcat/S0.5 % wt
49 | B1 | 164 % wt
50 | B2 | 170 % wt
51 | B3 | 169 % wt
52 | B4 | 163 % wt

Same assay, conditions: inhibitor malate

Row | Molecule | Ki
53 | B1 | 3300 µM
54 | B2 | 2000 µM
55 | B3 | 1000 µM
56 | B4 | 4000 µM

Same assay, conditions: inhibitor malate; relative to wild type

Row | Molecule | Malate Ki % wt
57 | B1 | 825 % wt
58 | B2 | 500 % wt
59 | B3 | 250 % wt
60 | B4 | 1000 % wt

Same assay, conditions: relative to wild type

Row | Molecule | Ki for malate, in words | Vmax, in words | activation by glucose-6-phosphate, in words | activation by glycine, in words
61 | B1 | increased Ki | better Vmax | increased activation | increased activation
62 | B3 | increased Ki | better Vmax | increased activation | increased activation
